Assay results reported in publication PMC9795039, “Kindlin2 enables EphB/ephrinB bi-directional signaling to support vascular development” (Life Science Alliance, 2022).
Numbering of substitutions follows the chain as printed. Names and notes keep the numbering of the source. Blank lines part the entries; values can stand above or below the binder they belong to.

Molecular target: T1, his-tagged human full-length kindlin2 (human, UniProt Q96AC1 1-680)
T1 construct: human full-length kindlin2 in gWIZ vector; also called purified kindlin2; recombinant kindlin2; source: Expi293F cells, purified
T1 sequence (looked up): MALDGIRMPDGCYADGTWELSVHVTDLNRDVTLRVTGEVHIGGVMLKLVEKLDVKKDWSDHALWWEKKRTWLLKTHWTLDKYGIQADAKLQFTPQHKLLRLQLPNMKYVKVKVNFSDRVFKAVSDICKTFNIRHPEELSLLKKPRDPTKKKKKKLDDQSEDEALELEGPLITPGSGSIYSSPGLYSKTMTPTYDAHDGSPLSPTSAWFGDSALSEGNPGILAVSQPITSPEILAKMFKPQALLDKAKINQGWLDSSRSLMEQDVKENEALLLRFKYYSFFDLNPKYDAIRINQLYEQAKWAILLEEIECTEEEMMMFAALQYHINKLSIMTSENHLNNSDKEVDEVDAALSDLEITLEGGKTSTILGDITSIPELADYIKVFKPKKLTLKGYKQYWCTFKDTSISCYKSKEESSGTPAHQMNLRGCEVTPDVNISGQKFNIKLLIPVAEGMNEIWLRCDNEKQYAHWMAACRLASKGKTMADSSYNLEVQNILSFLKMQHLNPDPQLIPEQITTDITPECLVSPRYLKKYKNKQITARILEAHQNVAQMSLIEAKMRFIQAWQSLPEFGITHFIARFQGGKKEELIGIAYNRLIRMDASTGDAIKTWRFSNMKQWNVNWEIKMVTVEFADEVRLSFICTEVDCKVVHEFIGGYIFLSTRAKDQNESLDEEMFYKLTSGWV
Assay: pull-down; in vitro binding assay: purified kindlin2 mixed with purified cytoplasmic tails immobilised on NeutrAvidin beads; Western blot with anti-kindlin2 antibody
Settings: both partners purified

B1: his/Avi-tagged cytoplasmic tail of ephrinB2 WT (domain or fragment, UniProt P52799 251-333, looked up)
chain: KYRRRHRKHSPQHTTTLSLSTLATPKRSGNNNGSEPSDIIIPLRTADSVFCPHYEKVSGDYGHPVYIVQEMPPQSPANIYYKV
modifications: biotinylated
notes: ephrinB2 cytoplasmic tail; Vector (his/Avi-tagged in pET15) and purification after Pfaff et al, 1998; The forward primer printed for the 4A construct reads KYRRR after the HindIII site, which may mark the start of the tail; also called ephrinB2 WT tail; ephrinB2 cytoplasmic tail; source: Escherichia coli (DE3), purified
- binding result: binds

B2: his/Avi-tagged cytoplasmic tail of ephrinB2 S325A (domain or fragment, UniProt P52799 251-333, looked up)
chain: B1 chain with S75A
modifications: biotinylated
notes: ephrinB2 cytoplasmic tail with S325A; source: Escherichia coli (DE3), purified
- binding result: binds

The remaining lines, values ahead:

- binding result: binds
B3: his/Avi-tagged cytoplasmic tail of ephrinB2 2A (domain or fragment, UniProt P52799 251-333, looked up)
chain: B1 chain with N78A, Y81A
modifications: biotinylated
notes: ephrinB2 cytoplasmic tail with N328A and Y331A; also called double point mutation (N328A and Y331A); source: Escherichia coli (DE3), purified

- binding result: binds
B4: his/Avi-tagged cytoplasmic tail of ephrinB2 Y331A (domain or fragment, UniProt P52799 251-333, looked up)
chain: B1 chain with Y81A
modifications: biotinylated
notes: ephrinB2 cytoplasmic tail with Y331A; source: Escherichia coli (DE3), purified

- binding result: binds
B5: his/Avi-tagged cytoplasmic tail of ephrinB2 N328A (domain or fragment, UniProt P52799 251-333, looked up)
chain: B1 chain with N78A
modifications: biotinylated
notes: ephrinB2 cytoplasmic tail with N328A; source: Escherichia coli (DE3), purified
